The results in this text go back to patent publication US7569660.

Data set [1] has as its target Rnq1 (S. cerevisiae) (UniProt P25367).
The target in data set [2] is yeast Hsp104 protein (UniProt P31539).
Sequence of yeast Hsp104 protein (P31539 whole entry): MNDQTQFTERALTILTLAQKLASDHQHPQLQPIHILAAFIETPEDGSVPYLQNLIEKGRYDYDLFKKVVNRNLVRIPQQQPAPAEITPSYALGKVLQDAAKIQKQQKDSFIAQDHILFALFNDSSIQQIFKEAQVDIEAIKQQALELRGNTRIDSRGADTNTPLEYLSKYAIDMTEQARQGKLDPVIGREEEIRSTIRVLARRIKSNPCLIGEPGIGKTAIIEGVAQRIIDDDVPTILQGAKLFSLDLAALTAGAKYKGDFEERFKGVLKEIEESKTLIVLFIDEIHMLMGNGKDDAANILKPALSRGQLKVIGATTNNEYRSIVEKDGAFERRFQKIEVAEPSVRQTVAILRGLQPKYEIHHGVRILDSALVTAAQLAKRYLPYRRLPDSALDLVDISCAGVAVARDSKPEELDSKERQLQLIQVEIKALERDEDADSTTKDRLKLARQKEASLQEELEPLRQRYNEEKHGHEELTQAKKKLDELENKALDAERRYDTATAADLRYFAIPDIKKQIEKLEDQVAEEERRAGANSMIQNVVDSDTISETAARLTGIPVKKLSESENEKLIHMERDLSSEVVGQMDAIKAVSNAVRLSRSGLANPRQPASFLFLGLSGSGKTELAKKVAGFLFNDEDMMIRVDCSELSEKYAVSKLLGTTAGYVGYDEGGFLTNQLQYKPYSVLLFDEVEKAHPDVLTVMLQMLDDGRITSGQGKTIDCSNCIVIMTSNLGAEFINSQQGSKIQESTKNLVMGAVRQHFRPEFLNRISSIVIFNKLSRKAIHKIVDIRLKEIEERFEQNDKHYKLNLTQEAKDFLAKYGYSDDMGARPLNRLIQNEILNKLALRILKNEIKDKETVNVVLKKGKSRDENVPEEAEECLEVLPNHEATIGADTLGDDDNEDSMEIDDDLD

Turning to Rnq1 (from UniProt P25367 1-405), in data set [1], the lag time of Thioflavin T fluorescence increase, seeded with 2% preformed fibers stood at 4.3 h and the lag time of Thioflavin T fluorescence increase, unseeded worked out at 6.4 h.

aldolase: the “ATPase activity of Hsp104 (released phosphate, Malachite Green)” value in data set [2] was “did not”.
